# Source: article PMC3404956, “A Quorum Sensing-Disrupting Brominated Thiophenone with a Promising Therapeutic Potential to Treat Luminescent Vibriosis”
# T1: GST-LuxR (Vibrio harveyi, UniProt P21308 1-205)
# T1 sequence: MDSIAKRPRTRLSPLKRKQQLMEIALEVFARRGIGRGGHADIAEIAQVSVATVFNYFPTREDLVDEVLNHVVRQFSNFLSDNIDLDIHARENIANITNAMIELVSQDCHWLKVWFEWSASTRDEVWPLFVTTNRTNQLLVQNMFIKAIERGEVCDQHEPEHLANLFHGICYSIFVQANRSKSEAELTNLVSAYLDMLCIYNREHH
# B1: V. harveyi consensus LuxR binding sequence (dsDNA)
# DNA 1: TATTGATAAATTTATCAATAA
# DNA 2: TTATTGATAAATTTATCAATA
# Biological target: T1, GST-LuxR
# Test: fluorescence anisotropy; no thiophenone; Kd value only in Figure 4B; 30°C; annealing in NaCl-Tris-EDTA buffer; binding buffer, salt and pH not stated (as in ref 37); ex 480 nm, em 535 nm
# Conditions: protein: recombinant; chain copies: 2; label: 5'-fluorescein on strand 1; blunt
binder,measurement,value
B1,binding result,binds
